From patent publication US8753698B2, “Anti-hypertensive functional food products” (Globus Egg Sciences B.V., priority 2004, dated 2014)

Target: Angiotensin-I Converting Enzyme (ACE) (Homo sapiens, UniProt P12821)
Assay: Determination of ACE inhibitory activity of hydrolysates in a microtiter plate (Hip-His-Leu substrate)
Format: biochemical
Conditions: no digestion simulation, in %
Procedure: ACE inhibitory activity can be measured in vitro using a spectrophotometry based assay. The assay is based on the liberation of hippuric acid from Hip-His-Leu substrate catalyzed by ACE.
Calculation of Ace Inhibition:
[formula] 2.4 Further (Optimized) Hydrolysis of Ovomucin with Alcalase Protocol for the DH Determination by TNBS Method Solutions: • 0.21 M Sodium phosphate buffer pH8.2 • 0.21 M NaH2PO4.H2O (25 ml solution) • 0.21 M Na2HPO4.2H2O (500 ml solution) • mix solutions to pH 8.2 • 0.05% TNBS • Dilute TNBS stock (5% solution) to 0.05% in MQ cover reagent tube with aluminium foil and store in dark place • 1% SDS solution • Leucine standard (stock 3 mM Leucine) • Dissolve Leucine in 1% SDS solution. Dilute the stock solution 20×, 10×, 4× en 2× with 1% SDS for analysis • Blank • Dilute non-hydrolysed sample in 1% SDS to a protein concentration of 0.5 mg/ml • Samples • Dilute hydrolysed protein in 1% SDS to a concentration of 0.5 mg/ml in duplo Analysis: • Pipet 15 μl sample (Leucine standard or sample) in microwell. Measure each dilution in twofold in plate (Costar, non-binding plate) • Add 45 μl 0.21 M sodium phosphate buffer pH 8.2 • Add 45 μl 0.05% TNBS. Cover plate with aluminium foil. Incubate plate for 60 minutes in a 50° C. stove. • After incubation add 90 μl 0.1 N HCl • Measure absorption at 340 nm (microplate reader) Calculation of degree of hydrolysis (DH): • Make calibration line of Leucine standard. This calibration line is used to convert absorption values of samples to NH2-equivalents.

Angiotensin-I Converting Enzyme (ACE), sequence (P12821 30-1306, species assumed): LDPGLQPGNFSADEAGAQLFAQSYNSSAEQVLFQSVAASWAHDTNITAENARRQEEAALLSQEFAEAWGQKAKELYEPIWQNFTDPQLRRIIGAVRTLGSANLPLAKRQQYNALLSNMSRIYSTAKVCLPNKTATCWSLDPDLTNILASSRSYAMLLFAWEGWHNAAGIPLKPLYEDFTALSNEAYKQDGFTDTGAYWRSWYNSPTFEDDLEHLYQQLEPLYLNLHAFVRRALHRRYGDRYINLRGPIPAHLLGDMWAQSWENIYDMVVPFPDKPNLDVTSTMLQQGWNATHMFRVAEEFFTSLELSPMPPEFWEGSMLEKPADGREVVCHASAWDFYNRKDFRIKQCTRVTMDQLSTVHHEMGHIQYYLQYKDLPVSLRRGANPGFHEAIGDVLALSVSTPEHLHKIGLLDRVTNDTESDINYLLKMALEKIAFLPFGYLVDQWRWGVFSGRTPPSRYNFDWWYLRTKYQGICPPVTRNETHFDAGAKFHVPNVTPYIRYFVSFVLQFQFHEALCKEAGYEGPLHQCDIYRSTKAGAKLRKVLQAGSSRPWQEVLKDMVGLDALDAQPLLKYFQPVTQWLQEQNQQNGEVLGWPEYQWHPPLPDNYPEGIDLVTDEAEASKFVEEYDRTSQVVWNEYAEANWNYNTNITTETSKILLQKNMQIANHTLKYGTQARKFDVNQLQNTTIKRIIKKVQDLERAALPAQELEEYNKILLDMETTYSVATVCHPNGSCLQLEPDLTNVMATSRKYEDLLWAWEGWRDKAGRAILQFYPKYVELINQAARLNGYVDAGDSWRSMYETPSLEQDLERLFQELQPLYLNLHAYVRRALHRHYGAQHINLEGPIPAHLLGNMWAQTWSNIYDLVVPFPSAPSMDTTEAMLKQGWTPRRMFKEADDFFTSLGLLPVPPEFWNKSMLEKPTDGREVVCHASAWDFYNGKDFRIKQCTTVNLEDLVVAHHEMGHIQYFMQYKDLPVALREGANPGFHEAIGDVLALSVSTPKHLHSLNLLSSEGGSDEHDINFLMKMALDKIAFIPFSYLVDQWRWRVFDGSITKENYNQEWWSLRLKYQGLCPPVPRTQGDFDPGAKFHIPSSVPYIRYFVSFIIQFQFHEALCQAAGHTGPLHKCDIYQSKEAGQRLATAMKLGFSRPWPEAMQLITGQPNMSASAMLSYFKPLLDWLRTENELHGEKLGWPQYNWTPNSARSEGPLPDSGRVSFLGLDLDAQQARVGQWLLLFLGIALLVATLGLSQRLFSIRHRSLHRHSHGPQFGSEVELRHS

B1: OT-UM: ovotransferrin, not pre-hydrolysed, nor in vitro digested (protein)
chain: APPKSVIRWCTISSPEEKKCNNLRDLTQQERISLTCVQKATYLDCIKAIANNEADAISLDGGQAFEAGLAPYKLKPIAAEVYEHTEGSTTSYYAVAVVKKGTEFTVNDLQGKTSCHTGLGRSAGWNIPIGTLLHRGAIEWEGIESGSVEQAVAKFFSASCVPGATIEQKLCRQCKGDPKTKCARNAPYSGYSGAFHCLKDGKGDVAFVKHTTVNENAPDQKDEYELLCLDGSRQPVDNYKTCNWARVAAHAVVARDDNKVEDIWSFLSKAQSDFGVDTKSDFHLFGPPGKKDPVLKDLLFKDSAIMLKRVPSLMDSQLYLGFEYYSAIQSMRKDQLTPSPRENRIQWCAVGKDEKSKCDRWSVVSNGDVECTVVDETKDCIIKIMKGEADAVALDGGLVYTAGVCGLVPVMAERYDDESQCSKTDERPASYFAVAVARKDSNVNWNNLKGKKSCHTAVGRTAGWVIPMGLIHNRTGTCNFDEYFSEGCAPGSPPNSRLCQLCQGSGGIPPEKCVASSHEKYFGYTGALRCLVEKGDVAFIQHSTVEENTGGKNKADWAKNLQMDDFELLCTDGRRANVMDYRECNLAEVPTHAVVVRPEKANKIRDLLERQEKRFGVNGSEKSKFMMFESQNKDLLFKDLTKCLFKVREGTTYKEFLGDKFYTVISSLKTCNPSDILQMCSFLEGK
conc. 0.019 mg/ml
  ACE inhibition: 0.7
conc. 0.056 mg/ml
  ACE inhibition: −4.1
conc. 0.167 mg/ml
  ACE inhibition: 0.7
conc. 0.500 mg/ml
  ACE inhibition: −0.3
